{
  "source": "paper PMC5902328",
  "substrate": "N",
  "test": "purified protein",
  "settings": "aminating direction, co-substrate Fru6P, saturating, no GlcNAc6P activator, 37 °C",
  "data": [
    {"protein": "Amuc-NagB (Akkermansia muciniphila ATCC BAA-835) (protein) MIGVESSRVMRAAPRKAVGRVEASVPWDFSRKYAAVHHSGTISVENARKRSKIGRVMKVETFETPQDAAKALAGEVAELIRTRAAEGKNVVLGLATGATPLPFYAELVRMHKEEGLSFANVISFNLDEYSGLDRDHPESYWYFMHTNLFNHIDIKPENINLPSGTVKDDEIAAHCAAYEQKIKDCGGIDLQILGIGRTGHIGFNEPGSDDTTVTRQVHLDELTRSDAAPAFGGIENVPTTAITMGVATIMGAREVALMAWGEKKASIVKKAVQGPVTVDVAASYLQKHPNAKFLLDKGAASLL", "values": [
      {"measurement": "Km", "value": "41.3 ± 12.8", "unit": "mM"}
    ]}
  ]
}
